The source of these data is PMC8427195, “Dehydrogenation Mechanism of Three Stereoisomers of Butane-2,3-Diol in Pseudomonas putida KT2440” (Frontiers in Bioengineering and Biotechnology, 2021).

The target in series [1] is (2R,3R)-2,3-BDO dehydrogenase (PP0552) of Pseudomonas putida KT2440 (Pseudomonas putida KT2440). The series can be described thus: SEC; Superdex 200 10/300 GL gel filtration; eluent 50 mM sodium phosphate pH 7.2, 150 mM sodium chloride, 0.5 mL min^-1; native molecular weight estimated against standard proteins and compared with the monomer mass.
Substrate in series [2]: NC(=O)c1ccc[n+]([C@@H]2O[C@H](COP(=O)(O)OP(=O)(O)OC[C@H]3O[C@@H](n4cnc5c(N)ncnc54)[C@H](O)[C@@H]3O)[C@@H](O)[C@H]2O)c1
Kind of series: purified protein. The class given is biochemical, Pseudomonas putida. The following applies: oxidative direction, diol co-substrate not stated (10 mM in general assay), pH 7.4, 30 °C, varied: cofactor.

Substrate in series [3]: NC(=O)C1=CN([C@@H]2O[C@H](COP(=O)(O)OP(=O)(O)OC[C@H]3O[C@@H](n4cnc5c(N)ncnc54)[C@H](O)[C@@H]3O)[C@@H](O)[C@H]2O)C=CC1
Kind of series: purified protein. The format is biochemical, Pseudomonas putida. As to conditions: reductive direction, pH 7.4, 30 °C, apparent Km, varied: cofactor.

Substrate in series [4]: CC(=O)C(C)O
Kind of series: purified protein. The format is biochemical, Pseudomonas putida. As to conditions: reduction with NADH (0.2 mM in general assay), pH 7.4, 30 °C, apparent Km.

Substrate in series [5]: C[C@@H](O)[C@@H](C)O
The series can be described thus: purified protein. The following applies: oxidation with NAD+ (1 mM in general assay), 50 mM Tris-HCl pH 7.4, 30 °C.

Substrate in series [6]: C[C@H](O)[C@@H](C)O
Kind of series: purified protein. The following applies: oxidation with NAD+ (1 mM in general assay), 50 mM Tris-HCl pH 7.4, 30 °C.

In the case of “(2R,3R)-2,3-BDO dehydrogenase (PP0552) of Pseudomonas putida KT2440 (enzyme)”, in series [1], the stoichiometry N is 4.

B1: R,R-BDH (PP0552), (2R,3R)-2,3-BDO dehydrogenase (Pseudomonas putida KT2440) (protein)
chain: MNDLSHTHMRAAVWHGRHDIRVEQVPLPADPAPGWVQIKVDWCGICGSDLHEYVAGPVFIPVEAPHPLTGIQGQCILGHEFCGHIAKLGEGVEGYAVGDPVAADACQHCGTCYYCTHGLYNICERLAFTGLMNNGAFAELVNVPANLLYRLPQGFPAEAGALIEPLAVGMHAVKKAGSLLGQTVVVVGAGTIGLCTIMCAKAAGAAQVIALEMSSARKAKAKEAGANVVLDPSQCDALAEIRALTAGLGADVSFECIGNKHTAKLAIDTIRKAGKCVLVGIFEEPSEFNFFELVSTEKQVLGALAYNGEFADVIAFIADGRLDIRPLVTGRIGLEQIVELGFEELVNNKEENVKIIVSPGVR
Turning to B1, the Km in series [2] was determined as 825 ± 96 µM; in series [3], 119 ± 22 µM; in series [4], 101 ± 5 µM; in series [5], 155 ± 16 µM; in series [6], 251 ± 22 µM. For the same molecule, the kcat was found to be 52.8 ± 3.8 s⁻¹ in series [2]; 53.3 ± 5.16 s⁻¹ in series [3]; 34.34 ± 0.256 s⁻¹ in series [4]; 23.9 s⁻¹ in series [5]; 21.1 s⁻¹ in series [6]. The catalytic efficiency (kcat/Km) in series [2] stood at 64300 ± 3120 M⁻¹ s⁻¹; in series [3], 454000 ± 36600 M⁻¹ s⁻¹; in series [4], 341000 ± 16900 M⁻¹ s⁻¹; in series [5] it was 154000 M⁻¹ s⁻¹; in series [6], 84300 M⁻¹ s⁻¹.

Broadly, the stoichiometry N is a count of units in the complex or per binding partner. Usually Km stands for the substrate concentration at which the rate is half of its maximum. The kcat is the number of substrate molecules converted per active site and unit of time at saturation. By kcat/Km is commonly meant the second-order rate constant that governs catalysis at low substrate concentration.
